# In the DeepSol protein solubility set:
# Test: soluble on expression in E. coli; label from the status in PepcDB or PDB records
row,Sequence,soluble on expression in E. coli
1,MSLKVFYMNVVIITGAASGIGHALSQVCLSNGKTIVMVDKNQDKLHTEAQSFMTKFSPEHVICFACDVTQPSEVERLAEYSCKQLGQVDWIFNNAGIIGNLLPAWELQENDINQVMQVNLHGMLNIIRSFMPYLFKQNFRSHIINMASLYALCTGSQMAAYSMSKHAVLALSESLYFDLNRLKKPVDVSVVFPSFTDTSLLASSGKLNHSPIHNQLNNLLAHSRPAIEVAEHIVREVEQKRFYILPDKEVKGYCEDRTKAILLQENPHRNSVEQLMCSLLKRQSSEANEGHHHHHH,soluble
2,MSLKVREEKLRTIIEWSEKNEDVRVLLLTSSLVNPLALVDEFSDLDIEFVFEDNTNYISDKSWTLKFGNPIAMIEEDESCFNHKHAMKMLLYEDGVKVDFKLYSKSKFIKETQEKELPEDWDIGYKILIDKDGITKQMLKPTYQISIIKKPSEKEFQNLINDFWWDTTYVAKCLVRDEIFYAKFMSETVIRTEYLIPLIEWHIASEHNWNITTNKYGRLFKKYLNQEMWAKTEQTFSGSDIKENWTALFSMTDLVSEIGTELSKKLEYKYPDKLENDIRKYLAGLKPKTEGHHHHHH,soluble
3,MSLKVSVIIPTYNERENLEELFSRIDNALQGLNYEIVVVDDDSPDRTWEKAQELSSKYPVKVIRRTKEKGLSSAVIRGFKEASGDVFVVMDADLQHPPEVIPKLIEAIKNGSDIAIGSRYVKGGKVENWPFYRKLISKGAIMVGRIALPKIRDIKDPVSGFFALRKEVVEGVELNPIGFKILMEILIKGKYSKVVEVPFTFGIRARGESKLKGKTIFEYLRHIYRLMKWEGEIDREGHHHHHH,soluble
4,MSLKWSAIPFQTLYRSIESGEFDFDLFKEVLPDLQNLNLNTDKLKNNASRSQLEKGEIELSDGSTFKVNQEFIFEAISLSDELNLDEIVACELILSGDTTANNGKVQYFLRRQYILQIVSFIVNCFHEDTELYQELIKNGALVSNILSAFKFIHTQLSEIKQQINKAQILENYNALFQQNIKFRRDFLLREYDILSQILYGLVDKGAIMKNKDFILSLLHHVSELDSNDFFIIYYTPAFFHLFASLRVLPDADVKLLHSQFMKDLKDDSIYTKPVKVALIFIFFAYFIGWCKEDPKRRADTMDFKTDVDEPMTSAVELGAIEQILIFAADTSIVEQDKSMELFYDIRSLLERHIPRLIPKQLLDDEKIFSQTTNSTYNPASATDNMSGRGLWNPSYPGMMSTTGTARLNSMPNNVNEYSYTTIVLSDQTQEFFLSSFDDVLQTIITDCAFLLTKIKDAEEDSLLSGEDLTLDDISLKADLERFFLSIYFFYASRPEYSCTFWSDKESNAYGFIEWCSRCNDNLMRSCFYLMVSSLSFGPENALNVYHYFGENSSISWKNIAQCLSDYTKKISNFNSSLHKRQQFSESTHNDIDSTAVALEEGLNEEAVIFLSSLLTLVGSVTYQVDEDVKSSLSKVFSDVLFEFTKINTPLVGAAFKVISNLVPKLESSRTKFWSFLDSLIFKDSSLNYSSESYRNAFTNVLTKYSDVLGFLQLFHNLISIHSREGHHHHHH,not soluble
5,MSLKYGGIIMKEILVIAPTKGTYEKSIHIVKKNKYKTIDVVFGNLKEGIPLAEKSINHGTRIIISRGGTYNMLKATYNIPIVEIKVDAYDIIKSYKEVKNSNEPFGIIGFNNVIYGFDIIEEILNKKITMIEIEKEEEIYDAIEKYRKKGINTYIGDTTVAHIVKRLNCKGILIESREENILRAIQQAEQILEATKDEQKRRLQIEAMTDFVHDGIITVDKNFKITLFNKSAEKIFGIKKENALYHNVVDVIPNTVLPQVVETMEPQIGEIQNIGSTKIITNRVPIIVDGQIQGAVSTFQDSKEISSFEHTIRRSLLSKGLSAEGHHHHHH,soluble
6,MSLKYQLRFGGEGGQGVITAGEILAEAAIKEGRQAFKASTYTSQVRGGPTKVDIIIDDKEILFPYAVEGEVDFMLSTADKGYKGFRGGVKEGGIIVVEPNLVHPESEDYKKWQIFEIPIITIAKDEVGNVATQSVVALAIAAYMSKCIDLDVLKETMLHMVPAKTRDANAKAFDLGVKYATQAKPHEGHHHHHH,soluble
7,MSLKYVNKVIVILGASFAGMTCAQKLRQLNPNWDIVLIDKEIHPDYVPNGLNWYYRHEISGLNQAMWQTEEEQRLQNIRCLFGLKVEKINKEDRELMLSDGSSVYYDQLICAMGSQAESTYIDGADAQGVLTTKTYATSQNAKQVLDKSHKVAVVGAGIIGLDIAYSLHESGKAVTLLEAQERPDFRHTDPDMSLPLLDAMAESKLHFFQNQKVEKITVTREEKLCLRTLTGDTFTVDAVILAVNFRPDSRLLTGLVDLSVDNSVVVNDYFQTSDPNIYAIGDLIWSYFKGLNSAYYMPLINQAIRSAQMLAYHLSGHAVPKLKITRATGSKHFGYYRANIGLTELEAGFYEDTVSVTYFPKEQYDLRIKLIANQKTGHLLGAQLISKENCLATANQLVQAISCDMTDFDLAFQDFIYTARESEMAYMLHQAAINLYEKRIGEGHHHHHH,soluble
8,MSLLCLFAVFAFSCNEEMERLLTDDYPESGTEYTTGHVLMVVIDGASGIAVNEAYNTRKAPVIRSMTDKSLFTFYGLADNEEGVSKERGWANLLTGTTKNGLDVNQGIDELETPSFLQRLKEADENLKVSFYSSDTEFFGAFGSVANTKRKTSADSETADALIAEINGETISDIVVAQFGGVQQTGEQYGFWSNETTPTSEVIDAIYNVDAFIGKIMKALEARSRYVQENWLVVITSSYGGVYEGNVTPASEGHHHHHH,soluble
9,MSLLMKGTYCLIINCRGTERRIGSLGTVRFPPGFYVYVGSGFSSLEARIKRHLSSEKRRRWHIDHFLDGAEVECVLYTTDKRRLECAVSEKLHGEKSVRGFGCSDCSCKSHLHHFKNKNDATESVKRAFRELGAEVHEWGIEGHHHHHH,soluble
10,MSLLPTILTVDDEEMIRDLMVTALSREGYRCFQAGSAEEARSVLQNNKIDLAILDIMMPGLSGDDFLKELKVLSPETVVLMVTALSDTETAMKCIHLGAYDYILKPFDIDRVLLTIHNALEKQRLLAENREYQANLEKKVDEQTRQIRMAMEDLNLAYNHTLTALVRALDAREKETGSHSERVMTYTLLLGEAMGVPEKDLSVMARGALLHDIGKVGISDNILLKPAKLDEREWMEMMRHPQLGYEILSGIKFLKGPAEIVFAHHERFDGSGYPKGLSRSGIPLGARIFSLVDTLDAMTSDRPYRKALPFEAVTSEVRRCRGTQFDPEIVDIFLSIPRERWEVVGKRHFIVGEGHHHHHH,not soluble
11,MSLLSKFKRNKHQQHLAQLPKISQSVDDVDFFYTPATFRETLLEKIASATQRICIVALYLEQDDGGKGILDALYAAKRQRPELDVRVLVDWHRAQRGRIGAAASNTNADWYCRLAQENPGIDVPVYGVPINTREALGVLHFKGFIIDDSVLYSGASLNDVYLHQHDKYRYDRYQLIRNRQMADIMFDWVTQNLMNGRGVNRLDNTQRPKSPEIKNDIRLYRQELRDASYHFQGDANDEQLSVTPLVGLGKSSLLNKTIFHLMPCAEHKLTICTPYFNLPAVLVRNIIQLLRDGKKVEIIVGDKTANDFYIPEDEPFKIIGALPYLYEINLRRFLSRLQYYVNTDQLVVRLWKDDDNTYHLKGMWVDDKWMLLTGNNLNPRAWRLDLENAILIHDPKQELAPQREKELELIRTHTTIVKHYRDLQSIADYPIKVRKLIRRLRRIRIDRLISRILEGHHHHHH,soluble
12,MSLLSSEGPIFYVQERIGQNYKPFNCIKFRTMVSNADEVLMQMMETSPQLRQEFESSFKLKKDPRITKIGQFLRITSLDEFPQFWNVLKGDMSVVGPRPLVAEELPKYGDHIEQVLTIRPGITGLWQVSGRNDIPYPRRVQIDLHYVKSRTLWLDLWIILKTIDVVIMPKNNGAYEGHHHHHH,soluble
13,MSLLYKKHSLHNIGRWVTNNSFFRKSGRIAVSTFNVAKFGGTSVANFEAMSRCSAIIENNPQTRLVVSSACSGVTNLLVELANGVASTERRQAILQQLADIHYVIIDQLADPTRVEKEVKAVLDSVASAAEAASFQSSKKLTDHLVACGELISTYILTQLMRERGVDAVRFDIREVLRTDDHYGRAEPQLKEIAQLAKEKLVPLCEQYVVVTQGFIGSDAQGNTTTLGRGGSDYSAALIAEAVQASGLEIWTDVPGIYSTDPRIAPKAAPIPEISFSEASEMANFGAKILHPSTLLPAVRHGIPVFVGSSKEPEKGGTWIRKQVESAPLYRALALRCNQTMVTLRSAQMFHAYGFLAKVFEILAKHKISVDLITTSEISVSLTLDKTDTSGGAPELPEAVRAELEELCTVEVEYNLCLIALIGNKMKESRGYAKQVFSVLEDYNLRMICYGASAHNLCFLLHESVSKQAVQKLHKELFEQEEGHHHHHH,soluble
14,MSLMRDITPDLCDKYESQVTLLNLPLQNFGQRSAFWGEIVTVRCYHDNSKVRDVLSQNGKGKVLVVDGHGSCHKALMGDQLAILAIKNDWEGVIIYGAVRDVVAMSEMDLGIKALGTSPFKTEKRGAGQVNVTLTMQNQIVEPGDYLYADWNGILMSETALDVAEGGSHHHHHH,soluble
15,MSLMSSRVTIFTSCNDAYIYLLREGNSQAFPNAVGSKMVNLNTIPPKNGRDYYIALGLEGSANKLGVGIVKHPLLPKHANSDLSYDCEAEMLSNIRDTYVTPPGEGFLPRDTARHHRNWCIRLIKQALAEADIKSPTLDIDVICFTKGPGMGAPLHSVVIAARTCSLLWDVPLVGVNHCIGHIEMGREITKAQNPVVLYVSGGNTQVIAYSEKRYRIFGETLDIAIGNCLDRFARTLKIPNEPSPGYNIEQLAKKAPHKENLVELPYTVKGMDLSMSGILASIDLLAKDLFKGNKKNKILFDKTTGEQKVTVEDLCYSLQENLFAMLVEITERAMAHVNSNQVLIVGGVGCNVRLQEMMAQMCKDRANGQVHATDNRFCIDNGVMIAQAGLLEYRMGGIVKDFSETVVTQKFRTDEVYAAWRDEGHHHHHH,not soluble
16,MSLNARTNIALLANSSSPLHPLQELLAVAGYQCNVFHAGRDLIQGLGHDTYEMLLIDRELADISAIDVIRTVRAVRNRDVPIVIFASENNDDDLVEALDAGADDYVLRPLAARVLLARIAALRRRMSGTRLRGAMPLRAGPYELSNPGRYATLNGGRIPMTPKEFDLAMLMFANAGRILASRRIEHTIWGHDLPPYSRALAGLVSRMRRTLNLCAENGVTVSVVYAQGYRLDILDEGHHHHHH,not soluble
17,MSLNASPQEDAGPEPVVYLVDDQQAELDLLQRWCSQEGLKTETFNQAEDLLKLLHADSHGCVVADLRMPRLSGLELQAEMSRRELTIPVILVTGHGDAENCRAAFQQGVFDFIEKGFRHEEILHAINSAIRKHRRDRFRHQVRKEALDLLRKISPRETEVMLLLAGGSPLKGIAQELSISVQTASKHRGSIFTKLNIDNEVDLYKMLLAAEVNLDVGEGHHHHHH,soluble
18,MSLNCERVWLNVTPATLRSDLADYGLLEPHALGVHEGRIHALVPMQDLKGPYPAHWQDMKGKLVTPGLIDCHTHLIFAGSRAEEFELRQKGVPYAEIARKGGGIISTVRATRAASEDQLFELALPRVKSLIREGVTTVEIKSGYGLTLEDELKMLRVARRLGEALPIRVKTTLLAAHAVPPEYRDDPDSWVETICQEIIPAAAEAGLADAVDVFCEHIGFSLAQTEQVYLAADQYGLAVKGHMDQLSNLGGSTLAANFGALSVDHLEYLDPEGIQALAHRGVVATLLPTAFYFLKETKLPPVVALRKAGVPMAVSSDINPGTAPIVSLRMAMNMACTLFGLTPVEAMAGVTRHAARALGEQEQLGQLRVGMLADFLVWNCGHPAELSYLIGVDQLVSRVVNGEETLHGEGHHHHHH,soluble
19,MSLNDGRLEIFQEGKPGRRIDEDQVFAAVLDALTKPAEQRTVTVAFREIPPPITAANLDQLGITTLIGVGRSDFTGSAAYRVTNIQAGMRLLHGVLIAPGEEFSFNQTIGRIDRSNGFVEGYAIIQNRTQLEWGGGICQDSTTMFRAAFWAGLPITERWGHSFYISWYDRYAFGPYGDGPGMDATIFTGGPDLKFLNDTGGWLLIQTLVDTHRHLAEVRLYGPDTGRKVLLEGPIITNRTEGHHHHHH,not soluble
